T1: Human DLL3-ECD (Homo sapiens, UniProt Q9NYJ7)
T1 construct: human DLL3 protein (Q9NYJ7, Gene ID: 10683, residues 27 to 466) linked via an Avi-tag; 3C protease recognition site (C); Fc knob into hole (C); purchased Evitria; host or cells: CHO cells
T1 sequence (Q9NYJ7 27-466): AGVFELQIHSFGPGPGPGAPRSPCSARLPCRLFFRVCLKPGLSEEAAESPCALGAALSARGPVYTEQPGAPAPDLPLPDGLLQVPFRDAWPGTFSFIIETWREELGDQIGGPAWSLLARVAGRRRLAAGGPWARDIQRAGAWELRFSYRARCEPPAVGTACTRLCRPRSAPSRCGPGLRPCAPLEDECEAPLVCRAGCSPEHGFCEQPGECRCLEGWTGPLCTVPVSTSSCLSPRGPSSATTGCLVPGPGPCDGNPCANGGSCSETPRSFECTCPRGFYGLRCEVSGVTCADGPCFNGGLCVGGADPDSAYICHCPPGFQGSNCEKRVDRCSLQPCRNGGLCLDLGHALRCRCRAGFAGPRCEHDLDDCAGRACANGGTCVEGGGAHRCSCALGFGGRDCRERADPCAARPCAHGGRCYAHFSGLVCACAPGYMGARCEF


How the values were obtained:
[1] = system: NCI-H82 lung carcinoma cells; assay: Internalization in NCI-H82 cells; type: cell-based, human; conditions: AF488 label with anti-AF488 quencher, 37° C.
Experimental: (§1) Studies were performed to determine whether a half-life extended DLL3-specific ankyrin repeat protein, as described herein, is internalized upon binding to cells expressing DLL3 on their surface. The specific ankyrin repeat protein tested was MAM279 (SEQ ID NO: 11) (with a Glycine-Serine (GS) at its N-terminal end). […] As a comparison, internalization was also tested for Rova antibody. Internalization was investigated on different cell types expressing DLL3 on their surface, namely SHP-77 lung carcinoma cells, NCI-H82 lung carcinoma cells, and hDLL3-expressing MC38 (MC38-hDLL3) colon carcinoma cells. In brief, DARPin and antibody were pre-incubated and labelled with fluorescently labelled detection antibodies (Fab-AF488) and added to 5×10^4 cells/well in a 96-well plate (100 nM DARPin, 10 nM antibody control) and incubated for 1h on ice. Cells were washed once with PBS and then incubated for different timepoints (0 min, 15 min, 30 min, 1 h and/or 4 h) at 37° C. in PBS with 2% FCS. […] Raw fcs files were exported and analyzed using FlowJo software. MFI values of live AF488-positive cells were exported from FlowJo and plotted using GraphPad Prism software. % internalization was determined by normalizing to non-binding control DARPin (for MAM279) or non-binding isotype control IgG (for Rova). […]

[2] = system: SHP-77 lung carcinoma cells; assay: Internalization in SHP-77 cells; type: cell-based, human; conditions: AF488 label with anti-AF488 quencher, 37° C.
Experimental: as §1

[3] = system: Dog DLL3-NTD; assay: SPR binding to dog DLL3-NTD (Example 11)
Experimental: The truncated dog DLL3 construct, comprising only the N-Terminal Domain (NTD, residues 27-189), was designed similarly to the human truncated target protein, with a C-terminal 6×His and Avi-tag. Co-expression was carried in Expi293F cells and purification was performed via Ni-NTA affinity chromatography followed by SEC. The final material was monomeric on size exclusion and stored in PBS pH 7.4 at the final concentration of ˜0.1-0.2 mg/ml.
(§2) The binding of 2D ankyrin repeat protein MAM279 as well as of MAM279 conjugated to the chelator DOTAM (the conjugation was performed as described in Example 3) to different target proteins was analyzed by Surface Plasmon Resonance (SPR). Specifically, the proteins analyzed were (i) MAM279 (SEQ ID NO: 11), with a Glycine-Serine (GS) at its N-terminal end and an N-terminal His-tag (SEQ ID NO: 19); and (ii) MAM279 (SEQ ID NO: 11), with a Glycine-Serine (GS) at its N-terminal end and a tag (SEQ ID NO: 10) at its C-terminal end (resulting in GS-MAM279-tag (SEQ ID NO: 15)), conjugated to the chelator DOTAM as described in Example 3.
(§3) A surface plasmon resonance (SPR) assay was used to determine the binding kinetics of the two proteins (i.e. MAM279 with and without conjugation to chelator) to different targets: the Extra-Cellular Domain (ECD) of human DLL3, the ECD of cynomolgus monkey DLL3, the N-Terminal Domain (NTD) only of human DLL3, and the NTD dog DLL3. The data were generated using BioRad ProteOn instrument in SPR running buffer (PBS, pH 7.4 containing 0.005% Tween 20©). […] The chip was coated with biotinylated target to reach a signal intensity of 1516 RU (human ECD), 257 RU (human NTD), 1500 RU (cyno ECD) and 228 RU (dog NTD). All analytes (various concentrations in 3-fold dilutions ranging from 500-6.17 nM) were injected in succession for 240 s (100 μl/min) and dissociation was recorded for 10800 s (100 μl/min). Each injection was followed by a regeneration step with 16 mM H3PO4 for 18 s. […] The obtained SPR traces were used to determine on-rate and off-rate interaction parameters.

[4] = target: T1, Human DLL3-ECD; assay: SPR binding to human DLL3-ECD (Example 11); conditions: immobilized biotinylated target, 1:1 Langmuir, Tables 14, 15
Excerpt: Two target formats were chosen: i) the first target protein consisted of the extracellular domain of human DLL3 protein (Q9NYJ7, Gene ID: 10683, residues 27 to 466) linked via an Avi-tag (for site-directed biotinylation), followed by a 3C protease recognition site, to a Fc knob into hole (hDLL3-Avi-Fckih); ii) the second target protein consisted of a very similar design including more residues of the extracellular domain of DLL3 (Q9NYJ7, Gene ID: 10683, res 27-470), directly linked to the Fc knob into hole domain followed by an Avi-tag (hDLL3-Fckih-Avi).
hDLL3-Avi-Fckih was expressed in CHO cells (Chinese hamster ovary cells) by Evitria and purified by a protein A derivative-based affinity chromatography followed by preparative size-exclusion chromatography (SEC). The material was up-concentrated in PBS pH 7.4 to 0.69 mg/ml and in vitro biotinylated using recombinant BirA. The final material was monomeric on size exclusion and stored in PBS pH 7.4 at the final concentration of 0.35 mg/ml.
as §2, §3

[5] = SPR, immobilized biotinylated target, 1:1 Langmuir, Table 15

Row | Koff Dog DLL3-NTD [3, 5] [s⁻¹] | Kon Dog DLL3-NTD [3, 5] [M⁻¹ s⁻¹] | Koff Human DLL3-ECD [4] [s⁻¹] | Kon Human DLL3-ECD [4] [M⁻¹ s⁻¹] | fold lower affinity for dog DLL3-NTD than for human DLL3-ECD ([3]; SPR KD comparison) | Kd [3, 5] [pM] | Kd [4] [pM] | Molecule | internalization [1] | internalization [2]
1 |  |  |  |  |  |  |  | Rova: Rova antibody, DLL3-binding benchmark antibody used as positive control and comparison (antibody, chains of the INN, looked up, V domains shown) VH: QVQLVQSGAEVKKPGASVKVSCKASGYTFTNYGMNWVRQAPGQGLEWMGWINTYTGEPTYADDFKGRVTMTTDTSTSTAYMELRSLRSDDTAVYYCARIGDSSPSDYWGQGTLVTVSS VL: EIVMTQSPATLSVSPGERATLSCKASQSVSNDVVWYQQKPGQAPRLLIYYASNRYTGIPARFSGSGSGTEFTLTISSLQSEDFAVYYCQQDYTSPWTFGQGTKLEIK | internalization | internalization
2 | 4.86e-05 | 33400 | 1.64e-05 | 67400 |  |  |  | MAM279-DOTAM: GS-MAM279-tag (SEQ ID NO: 15) conjugated to the chelator DOTAM via C-terminal tag and maleimide connector, no radionuclide (conjugate, DOTAM chelator via maleimide on C-terminal tag; Ankyrin repeat protein with tag (GS-MAM279-tag)) GSDLGKKLLEAARAGQDDEVRELLKAGADVNAKDYFSHTPLHLAARNGHLKIVEVLLKAGADVNAKDFAGKTPLHLAADAGHLEIVEVLLKAGADVNAQDIFGKTPADIAADAGHEDIAEVLQKAAGSPTPTPTTPTPTPTTPTPTPTGSDLGKKLLAAAAQGQDDEVRELLKAGANVNAKDLFGYTPLHLAAWRGHLEIVEVLLKAGADVNAKDAAGETPLHLAAWFGHLEIVEVLLKAGADVNAQDLQGKTPADLAAKEGHEDIAEVLQKAAGSGSC |  | 
3 | 5.58e-05 | 46400 | 1.45e-05 | 83500 | about 10 fold | 1200 | 174 | MAM279: Two domain (2D) ankyrin repeat protein: serum albumin-specific domain (SEQ ID NO: 7), PT linker, DLL3-specific domain of MAM093 (protein, Ankyrin repeat protein (MAM279)) DLGKKLLEAARAGQDDEVRELLKAGADVNAKDYFSHTPLHLAARNGHLKIVEVLLKAGADVNAKDFAGKTPLHLAADAGHLEIVEVLLKAGADVNAQDIFGKTPADIAADAGHEDIAEVLQKAAGSPTPTPTTPTPTPTTPTPTPTGSDLGKKLLAAAAQGQDDEVRELLKAGANVNAKDLFGYTPLHLAAWRGHLEIVEVLLKAGADVNAKDAAGETPLHLAAWFGHLEIVEVLLKAGADVNAQDLQGKTPADLAAKEGHEDIAEVLQKAA | similarly internalized | similarly internalized

— patent US20250332297A1, “DLL3-SPECIFIC BINDING CONSTRUCTS AND THEIR USE IN RADIOTHERAPY” (MOLECULAR PARTNERS AG, priority 2024, published 2025)
